Data taken from US20110159009A1.

Molecular target: mouse VEGF-A (mouse) (UniProt Q00731)
Assay: cell-based or functional assay

mouse VEGF-A (mouse), sequence (Q00731 other isoform, or with tags, fused parts or gaps limits assumed): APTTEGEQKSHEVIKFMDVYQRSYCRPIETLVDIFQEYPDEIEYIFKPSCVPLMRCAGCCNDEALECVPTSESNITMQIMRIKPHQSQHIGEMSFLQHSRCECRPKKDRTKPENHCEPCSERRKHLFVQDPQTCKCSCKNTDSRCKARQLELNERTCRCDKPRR

Substance: Bevacizumab (BV) (antibody)
- BRME proliferation (Alamar blue): > 1500 nM
